Changes are numbered by the printed parent chain.
B1: ABT2-13 (other)
VH: EVQLLESGGGLVQPGGSLRLSCAASGFTFRDYVMYWARQAPGKGLEWVSRIDPMGSSTYYADSVKGRFTISRDNSKNTLYLQMNSLRAEDTAVYYCAKPEGNFDYWGQGTLVTVSS
B2: ABT2-68 (other)
VL: DIQMTQSPSSLSASVGDRVTITCRASQNIWYHLNWYQQKPGKAPKLLIYLGSRLQSGVPSRFSGSGSGTDFTLTISSLQPEDFATYYCQQIHHDPFTFGQGTKVEIKR
B3: ABT2-69 (other)
VH: EVQLLESGGGLVQPGGSLRLSCAASGFTFTGYDMAWVRQAPGKGLEWVSVIYAYGESTYYADSVKGRFTISRDNSKNTLYLQMNSLRAEDTAVYYCAKVYSNQFDYWGQGTLVTVSS
B4: ABT2-72 (other)
VH: B3 VH with T30R, G31A, A35G, Y54W, E56T, V99T, Y100S, N102D, Q103G
B5: ABT2-65-504 (other)
VH: EVQLLESGGGLVQPGGSLRLSCVASGFTFEDYQMGWVRQAPGKGLERVSSVSAMGNRTHYADSVKGRFTISRDDSKNTLYLQMNSLRAGDTAVYYCAQNLVRLGRSRWMFDYWGQGTLVTVSS
B6: ABT2-66 (other)
VH: EVQLLESGGGLVQPGGSLRLSCAASGFTFSHYTMAWVRQAPGKGLEWVSTIGSSGNSTYYADSVKGRFTISRDNSKNTLYLQMNSLRAEDTAVYYCAQMRGPYYTFDYRGQGTLVTVSS
B7: ABT2-67 (other)
VL: DIQMTQSPSSLSASVGDRVTITCRASQYIGEHLAWYQQKPGKAPKLLIYHNSALQSGVPSRFSGSGSGTDFTLTISSLQPEDFATYYCQQHAFLPNTFGQGTKVEIKR
B8: ABT2-76 (other)
VL: B7 VL with Y28S, G30D, E31R, H32W, H50R, N51G, A53I, H91V, L94W, N96P
B9: ABT2-65 (other)
VH: EVQLLESGGGLVQPGGSLRLSCAASGFTFEDYQMGWVRQAPGKGLEWVSSISAMGNRTYYADSVKGRFTISRDDSKNTLYLQMNSLRAEDTAVYYCAKNLVRTQSKMWMFDYWGQGTLVTVSS
B10: ABT2-65-502 (other)
VH: B5 VH with R47W, H59Y, D74G, G89E
B11: ABT2-65-510 (other)
VH: B5 VH with R47W, V51I, H59Y, K76E, G89E
B12: ABT2-65-34 (other)
VH: B9 VH with K98Q, Q104R, M107R
B13: ABT2-65-35 (other)
VH: B5 VH with R47W, V51I, H59Y, G89E, G104R
B14: ABT2-65-512 (other)
VH: B5 VH with R38H, R47W, V51I, H59Y, G89E
B15: ABT2-65-163 (other)
VH: B5 VH with R47W, V51I, N56G, H59Y, G89E
B16: ABT2-65-160 (other)
VH: B5 VH with R47W, V51I, N56P, H59Y, G89E
B17: ABT2-65-82 (other)
VH: B5 VH with Q13R, R47W, V51I, H59Y, S75P, G89E
notes: VH dAb
B18: ABT2-65-8 (other)
VH: B9 VH with K98Q, T103M, Q104D, K106R, M107R
B19: ABT2-65-6 (other)
VH: B9 VH with K98Q
notes: VH dAb
B20: ABT2-65-7 (other)
VH: B9 VH with M54T, K98Q, Q104R, S105I
notes: VH dAb
B21: ABT2-65-79 (other)
VH: B5 VH with R47W, V51I, H59Y, L118M
notes: VH dAb
B22: ABT2-65-48 (other)
VH: B9 VH with N99W, L100Q, V101M, M107L, W108G, M109Y
notes: VH dAb
B23: ABT2-65-81 (other)
VH: B5 VH with D31E, R47W, V51I, H59Y, G89E
notes: VH dAb
B24: ABT2-65-47 (other)
VH: B9 VH with N99W, L100R, V101K, M107L, W108G, M109Y
notes: VH dAb
B25: ABT2-60 (other)
VL: DIQMTQSPSSLSASVGDRVTITCRASQSIRVFLSWYQQKPGKAPKLLIYNASNLQSGVPSRFSGSGSGTDFTLTISSLQPEDFATYYCQQRALYPTTFGQGTKVEIKR
notes: VK dAb
B26: ABT2-59 (other)
VL: B25 VL with R30N
notes: VK dAb
B27: ABT2-62 (other)
VL: B25 VL with R30Q, V31T, F32Y
notes: VK dAb
B28: ABT2-61 (other)
VL: B25 VL with N53H
notes: VK dAb
B29: ABT2-108-533X (other)
VH: EVQLLESGGGLVQPGGSLRLSCAASGFTFADEGMMWVRQAPGKGLEWVSRIGQDGKNTYYADSVKGRFTISRDNSKNTLYLQMNSLRAEDTAVYYCAKYTGRILGHHLFDYWGQGTLVTVSS
B30: ABT2-108-537X (other)
VH: B29 VH with A61R, D62M, S63D
B31: ABT2-108-538X (other)
VH: B29 VH with G52T, Q53Y, D54S

Experiments:
human IL-1β [1] = target: T1, human IL-1β (human, UniProt P01584 117-269); experiment: cell-based or functional assay
human IL-1β [2] = target: T1, human IL-1β; experiment: IC50 column of Table 63; receptor binding assay presumed

| Binder | ND50 (human IL-1β [1]) [nM] | IC50 (human IL-1β [2]) [nM] |
| --- | --- | --- |
| B1 | 1000 | 175 |
| B2 | > 10000 | – |
| B3 | > 10000 | – |
| B4 | > 10000 | – |
| B5 | 4 | – |
| B6 | > 10000 | – |
| B7 | > 10000 | – |
| B8 | 500 | – |
| B9 | 505 | 100 |
| B10 | 2 | – |
| B11 | 1 | – |
| B12 | 20 | – |
| B13 | 4 | – |
| B14 | 3 | – |
| B15 | 2 | – |
| B16 | 2 | – |

| Binder | ND50 (human IL-1β [1]) [nM] | IC50 (human IL-1β [2]) [nM] |
| --- | --- | --- |
| B17 | 2 | 8 |
| B18 | 3 | 10 |
| B19 | > 1000 | 30 |
| B20 | 200 | 30 |
| B21 | 2 | 6 |
| B22 | 80 | 20 |
| B23 | 2 | 10 |
| B24 | 80 | 20 |
| B25 | > 1000 | 1000 |
| B26 | > 1000 | 700 |
| B27 | > 1000 | 1000 |
| B28 | > 1000 | 1000 |
| B29 | 5 | – |
| B30 | 206 | – |
| B31 | 5 | – |

Reference: US20090291081A1 (AbbVie / Abbott, published 2009)
